38 molecules from patent US7026443 can be followed below.

The labels stand for the following.
B1: HPV18 E7 peptide … (position 55, 10 amino acids) (peptide)
peptide: EPQRHTMLCM
modifications: not checked
B2: HPV18 E6 peptide … (position 6, 9 amino acids) (peptide)
peptide: DPTRRPYKL
modifications: not checked
B3: HPV18 E6 peptide … (position 110, 9 amino acids) (peptide)
peptide: KPLNPAEKL
modifications: not checked
B4: HPV31 E6 111 … (peptide)
peptide: CPEEKQRHL
modifications: not checked
B5: HPV18 E7 peptide … (position 3, 9 amino acids) (peptide)
peptide: GPKATLQDI
modifications: not checked
B6: HPV18 E7 peptide … (position 16, 10 amino acids) (peptide)
peptide: EPQNEIPVDL
modifications: not checked
B7: HPV18 E6 peptide … (position 113, 9 amino acids) (peptide)
peptide: NPAEKLRHL
modifications: not checked
B8: HPV18 E6 peptide … (position 60, 10 amino acids) (peptide)
peptide: IPHAACHKCI
modifications: not checked
B9: HPV31 E1 289 peptide … (B07 supermotif peptide) (peptide)
peptide: PPKLRSTAA
modifications: not checked
B10: HPV18 E7 94-102 peptide … (peptide)
peptide: LSFVCPWCA
modifications: not checked
B11: HPV18 E1 80-88 peptide … (peptide)
peptide: QVLHVLKRK
modifications: not checked
B12: HPV18 E7 71-80 peptide … (peptide)
peptide: RIKLVVESSA
modifications: not checked
B13: HPV18 E7 88-96 peptide … (peptide)
peptide: QLFLNTLSF
modifications: not checked
B14: HPV18 E7 60-67 peptide TMLCMCCK (peptide)
peptide: TMLCMCCK
modifications: not checked
B15: HPV18 E1 position 574 peptide … (peptide)
peptide: NIHPAKDNR
modifications: not checked
B16: HPV18 E1 position 80 peptide … (peptide)
peptide: QVLHVLKRK
modifications: not checked
B17: HPV18 E1 position 468 peptide … (peptide)
peptide: KSFLKGTPK
modifications: not checked
B18: HPV18 E1 position 647 peptide … (peptide)
peptide: KLRAGQNHR
modifications: not checked
B19: HPV18 E1 position 281 peptide … (peptide)
peptide: LILALLRYK
modifications: not checked
B20: HPV18 E1 position 571 peptide … (peptide)
peptide: LTTNIHPAK
modifications: not checked
B21: HPV18 E1 position 536 peptide … (peptide)
peptide: WTYFDTYMR
modifications: not checked
B22: HPV18 E1 position 119 peptide … (peptide)
peptide: NSGQKKAKR
modifications: not checked
B23: HPV16 E7 64 … (peptide)
peptide: TLRLCVQST
modifications: not checked
B24: HPV16 E7 63 … (peptide)
peptide: STLRLCVQST
modifications: not checked
B25: HPV16 E7 78 … (peptide)
peptide: TLEDLLMGTL
modifications: not checked
B26: HPV16 E7 11 … (peptide)
peptide: YMLDLQPET
modifications: not checked
B27: HPV16 E7 55 … (peptide)
peptide: VTFCCKCDST
modifications: not checked
B28: HPV16 E7 64 … (peptide)
peptide: TLRLCVQSTHV
modifications: not checked
B29: HPV16 E7 78 … (peptide)
peptide: TLEDLLMGT
modifications: not checked
B30: … (HPV16 E6, position 117, 9 amino acids) (peptide)
peptide: LCPEEKQRH
modifications: not checked
B31: … (HPV16 E6, position 64, 9 amino acids) (peptide)
peptide: GNPYAVCDK
modifications: not checked
B32: … (HPV16 E6, position 134, 9 amino acids) (peptide)
peptide: NIRGRWTGR
modifications: not checked
B33: … (HPV16 E6, position 125, 9 amino acids) (peptide)
peptide: HLDKKQRFH
modifications: not checked
B34: … (HPV16 E6, position 59, 9 amino acids) (peptide)
peptide: IVYRDGNPY
modifications: not checked
B35: HPV18 E6 92-101 peptide … (peptide)
peptide: KLTNTGLYNL
modifications: not checked
B36: HPV16 E6 82 … (peptide)
peptide: EYRHYCYSL
modifications: not checked
B37: HPV16 E6 85 … (peptide)
peptide: HYCYSLYGTTL
modifications: not checked
B38: HPV18 E6 80-90 peptide … (peptide)
peptide: HYSDSVYGDTL
modifications: not checked

The first assay addresses HLA-B*5101 (human). The assay is described as follows: competition with 125I-labelled standard peptide for purified HLA, gel filtration.
Conditions: not given
(SEC sorts molecules by how far they enter the pores of the column.)
For B1, the binding affinity ratio (IC50 of standard peptide / IC50 of test peptide) turned out to be 0.0003.

Regarding B2, the binding affinity ratio (IC50 of standard peptide / IC50 of test peptide) was 0.0001.

Consider B3, for which the binding affinity ratio (IC50 of standard peptide / IC50 of test peptide) was determined as 0.0001.

As to B4, the relative binding ratio (IC50 of standard peptide / IC50 of test peptide) was 0.0074.

For the molecule B5, the binding affinity ratio (IC50 of standard peptide / IC50 of test peptide) was 0.0001.

For the molecule B6, the binding affinity ratio (IC50 of standard peptide / IC50 of test peptide) is 0.0001.

Consider B7, for which the binding affinity ratio (IC50 of standard peptide / IC50 of test peptide) turned out to be 0.0001.

For the molecule B8, the binding affinity ratio (IC50 of standard peptide / IC50 of test peptide) stood at 0.0046.

A further assay has as its target HLA-B*5301 (human). The description is as above.
Conditions: not given
As to B1, the binding affinity ratio (IC50 of standard peptide / IC50 of test peptide) is 0.0043.

Take B2: the binding affinity ratio (IC50 of standard peptide / IC50 of test peptide) turned out to be 0.0001.

For B3, the binding affinity ratio (IC50 of standard peptide / IC50 of test peptide) came to 0.0001.

In the case of B4, the relative binding ratio (IC50 of standard peptide / IC50 of test peptide) is 0.0006.

Consider B5, for which the binding affinity ratio (IC50 of standard peptide / IC50 of test peptide) was 0.0001.

As to B6, the binding affinity ratio (IC50 of standard peptide / IC50 of test peptide) is 0.0001.

Turning to B7, the binding affinity ratio (IC50 of standard peptide / IC50 of test peptide) turned out to be 0.0001.

Take B8: the binding affinity ratio (IC50 of standard peptide / IC50 of test peptide) is 0.0001.

The next assay deals with HLA-B*3501 (human). The assay is described as above.
Conditions: not given
For the molecule B1, the binding affinity ratio (IC50 of standard peptide / IC50 of test peptide) worked out at 0.0002.

B2: the binding affinity ratio (IC50 of standard peptide / IC50 of test peptide) worked out at 0.0001.

As for B3, the binding affinity ratio (IC50 of standard peptide / IC50 of test peptide) stood at 0.0001.

Turning to B5, the binding affinity ratio (IC50 of standard peptide / IC50 of test peptide) came out at 0.0001.

As for B6, the binding affinity ratio (IC50 of standard peptide / IC50 of test peptide) was determined as 0.0005.

Take B7: the binding affinity ratio (IC50 of standard peptide / IC50 of test peptide) was found to be 0.0001.

Turning to B8, the binding affinity ratio (IC50 of standard peptide / IC50 of test peptide) is 0.0001.

The target in a further assay is HLA-B*0702 (human). The assay is described as above.
Conditions: not given
For B1, the binding affinity ratio (IC50 of standard peptide / IC50 of test peptide) was 0.0026.

Take B9: the binding affinity ratio (IC50 of standard peptide / IC50 of test peptide) amounted to 0.0014.

Take B2: the binding affinity ratio (IC50 of standard peptide / IC50 of test peptide) was determined as 0.0001.

On to B3, for which the binding affinity ratio (IC50 of standard peptide / IC50 of test peptide) turned out to be 0.035.

In the case of B6, the binding affinity ratio (IC50 of standard peptide / IC50 of test peptide) was found to be 0.0001.

Regarding B7, the binding affinity ratio (IC50 of standard peptide / IC50 of test peptide) came out at 0.011.

Consider B8, for which the binding affinity ratio (IC50 of standard peptide / IC50 of test peptide) was 0.0065.

The target in a further assay is HLA-B*5401 (human). The description is as above.
Conditions: not given
Turning to B1, the binding affinity ratio (IC50 of standard peptide / IC50 of test peptide) came out at 0.0001.

For B2, the binding affinity ratio (IC50 of standard peptide / IC50 of test peptide) turned out to be 0.0002.

Take B3: the binding affinity ratio (IC50 of standard peptide / IC50 of test peptide) is 0.0002.

On to B5, for which the binding affinity ratio (IC50 of standard peptide / IC50 of test peptide) stood at 0.0002.

Consider B6, for which the binding affinity ratio (IC50 of standard peptide / IC50 of test peptide) was found to be 0.0001.

In the case of B7, the binding affinity ratio (IC50 of standard peptide / IC50 of test peptide) stood at 0.0002.

Take B8: the binding affinity ratio (IC50 of standard peptide / IC50 of test peptide) was determined as 0.0005.

For the next assay, the target named is HLA-A*0301 (human). The assay is described as follows: competition with 125I-labeled standard peptide for purified HLA-A*0301, gel filtration.
Conditions: not given
Regarding B10, the relative binding ratio (IC50 of standard peptide / IC50 of test peptide) was found to be 0.0005.

Turning to B11, the binding affinity ratio relative to standard peptide (IC50 standard / IC50 test) was found to be 0.0028.

With B12, the relative binding ratio (IC50 of standard peptide / IC50 of test peptide) was 0.0005.

With B13, the relative binding ratio (IC50 of standard peptide / IC50 of test peptide) was 0.0005.

Take B14: the relative binding ratio (IC50 of standard peptide / IC50 of test peptide) is 0.024.

The next assay deals with HLA-A*0301 (human). The assay is described as follows: competitive inhibition of 125I-labelled standard peptide binding to purified HLA, gel filtration.
Conditions: not given
B15: the binding affinity ratio (IC50 of standard peptide / IC50 of test peptide) was 0.0005.

B16: the binding affinity ratio (IC50 of standard peptide / IC50 of test peptide) came out at 0.0028.

Regarding B17, the binding affinity ratio (IC50 of standard peptide / IC50 of test peptide) is 0.0003.

Take B18: the binding affinity ratio (IC50 of standard peptide / IC50 of test peptide) was determined as 0.3.

As to B19, the binding affinity ratio (IC50 of standard peptide / IC50 of test peptide) was 0.27.

As for B20, the binding affinity ratio (IC50 of standard peptide / IC50 of test peptide) was found to be 0.091.

Consider B21, for which the binding affinity ratio (IC50 of standard peptide / IC50 of test peptide) came to 0.0005.

Consider B22, for which the binding affinity ratio (IC50 of standard peptide / IC50 of test peptide) turned out to be 0.0005.

The target in a further assay is HLA-A*1101 (human). Described as above.
Conditions: not given
Take B15: the binding affinity ratio (IC50 of standard peptide / IC50 of test peptide) stood at 0.0002.

Take B16: the binding affinity ratio (IC50 of standard peptide / IC50 of test peptide) turned out to be 0.002.

In the case of B17, the binding affinity ratio (IC50 of standard peptide / IC50 of test peptide) stood at 0.0015.

As to B18, the binding affinity ratio (IC50 of standard peptide / IC50 of test peptide) worked out at 0.0013.

For the molecule B19, the binding affinity ratio (IC50 of standard peptide / IC50 of test peptide) was 0.18.

On to B20, for which the binding affinity ratio (IC50 of standard peptide / IC50 of test peptide) worked out at 0.12.

With B21, the binding affinity ratio (IC50 of standard peptide / IC50 of test peptide) is 0.012.

Regarding B22, the binding affinity ratio (IC50 of standard peptide / IC50 of test peptide) was 0.0002.

Another assay concerns the target HLA-A*1101 (human). Briefly: competition with 125I-labelled standard peptide for purified HLA-A*1101, gel filtration.
Conditions: not given
B17: the binding affinity ratio (IC50 of standard peptide / IC50 of test peptide) came to 0.0015.

B18: the binding affinity ratio (IC50 of standard peptide / IC50 of test peptide) is 0.0013.

The target in a further assay is HLA-A*0201 (human). The assay is described as follows: competition with 125I-labelled standard peptide on purified HLA, gel filtration.
Conditions: not given
On to B23, for which the binding affinity ratio (IC50 of standard peptide / IC50 of test peptide) was found to be 0.0061.

Regarding B24, the binding affinity ratio (IC50 of standard peptide / IC50 of test peptide) stood at 0.0012.

On to B25, for which the binding affinity ratio (IC50 of standard peptide / IC50 of test peptide) was 0.0002.

Regarding B26, the binding affinity ratio (IC50 of standard peptide / IC50 of test peptide) was 0.14.

With B27, the binding affinity ratio (IC50 of standard peptide / IC50 of test peptide) amounted to 0.0001.

Regarding B28, the binding affinity ratio (IC50 of standard peptide / IC50 of test peptide) amounted to 0.0006.

Still in this assay, the particulars now being: remark: other sources report otherwise.
On to B29, for which the binding affinity ratio (IC50 of standard peptide / IC50 of test peptide) worked out at 0.0002.

The target of a further assay is HLA-A*1101 (human). Briefly: competition with 125I-labelled standard peptide on purified HLA-A*1101, gel filtration.
Conditions: not given
With B30, the binding affinity ratio (IC50 of standard peptide / IC50 of test peptide) (ratio to standard peptide) is 0.0001.

For B31, the binding affinity ratio (IC50 of standard peptide / IC50 of test peptide) (ratio to standard peptide) is 0.0001.

For B32, the binding affinity ratio (IC50 of standard peptide / IC50 of test peptide) (ratio to standard peptide) turned out to be 0.0005.

The assay is the same for the next values; noted with them: remark: other sources report otherwise.
Take B33: the binding affinity ratio (IC50 of standard peptide / IC50 of test peptide) (ratio to standard peptide) is 0.0001.

Take B34: the binding affinity ratio (IC50 of standard peptide / IC50 of test peptide) (ratio to standard peptide) stood at 0.15.

A further assay deals with HLA-A*2402 (human). Briefly: competition with 125I-labelled standard peptide for purified HLA-A*2402, gel filtration.
Conditions: not given
B35: the relative binding ratio (IC50 of standard peptide / IC50 of test peptide) (ratio to standard peptide) stood at 0.0001.

Take B36: the binding affinity ratio (IC50 of standard peptide / IC50 of test peptide) was 0.0051 and the relative binding ratio (IC50 of standard peptide / IC50 of test peptide) (ratio to standard peptide) came out at 0.0051.

Turning to B37, the binding affinity ratio (IC50 of standard peptide / IC50 of test peptide) was 0.065 and the relative binding ratio (IC50 of standard peptide / IC50 of test peptide) (ratio to standard peptide) is 0.065.

As for B38, the relative binding ratio (IC50 of standard peptide / IC50 of test peptide) (ratio to standard peptide) is 0.0069.
